The target in test [1] is human VEGFR-2 alkaline phosphatase (human) (UniProt P35968). The experiment in a line: ELISA: plate coated with huVEGFR-2-AP 100 ng/well, goat anti-human kappa-HRP, O.D. 450.
The target is the same in test [2]. The experiment in a line: ELISA: antibody dilutions on plate coated with 1 µg/ml human VEGFR-2 alkaline phosphatase, HRP secondary, O.D. 450.
Another test concerns the target mouse VEGFR-1 Fc (mouse) (UniProt P35969). The test can be described thus: ELISA: antibody dilutions on plate coated with 1 µg/ml mouse VEGFR-1 Fc, HRP secondary, O.D. 450. A general note: In an ELISA, binding on a coated surface is turned into a signal by an enzyme label.
Another test addresses mouse VEGFR-1-AP (mouse) (UniProt P35969). The experiment in a line: ELISA: plate coated with mouse VEGFR-1-AP 100 ng/well, goat anti-rat IgG-HRP, O.D. 450.
The target in test [3] is native VEGFR-1 expressed on the cell surface (human) (UniProt P17948). The experiment in a line: flow cytometry on PAE-VEGFR-1 cells, FITC goat anti-human IgG. (In general: In flow cytometry, cells or beads pass a laser one at a time.)
native VEGFR-1 expressed on the cell surface (human), sequence (P17948 27-1338): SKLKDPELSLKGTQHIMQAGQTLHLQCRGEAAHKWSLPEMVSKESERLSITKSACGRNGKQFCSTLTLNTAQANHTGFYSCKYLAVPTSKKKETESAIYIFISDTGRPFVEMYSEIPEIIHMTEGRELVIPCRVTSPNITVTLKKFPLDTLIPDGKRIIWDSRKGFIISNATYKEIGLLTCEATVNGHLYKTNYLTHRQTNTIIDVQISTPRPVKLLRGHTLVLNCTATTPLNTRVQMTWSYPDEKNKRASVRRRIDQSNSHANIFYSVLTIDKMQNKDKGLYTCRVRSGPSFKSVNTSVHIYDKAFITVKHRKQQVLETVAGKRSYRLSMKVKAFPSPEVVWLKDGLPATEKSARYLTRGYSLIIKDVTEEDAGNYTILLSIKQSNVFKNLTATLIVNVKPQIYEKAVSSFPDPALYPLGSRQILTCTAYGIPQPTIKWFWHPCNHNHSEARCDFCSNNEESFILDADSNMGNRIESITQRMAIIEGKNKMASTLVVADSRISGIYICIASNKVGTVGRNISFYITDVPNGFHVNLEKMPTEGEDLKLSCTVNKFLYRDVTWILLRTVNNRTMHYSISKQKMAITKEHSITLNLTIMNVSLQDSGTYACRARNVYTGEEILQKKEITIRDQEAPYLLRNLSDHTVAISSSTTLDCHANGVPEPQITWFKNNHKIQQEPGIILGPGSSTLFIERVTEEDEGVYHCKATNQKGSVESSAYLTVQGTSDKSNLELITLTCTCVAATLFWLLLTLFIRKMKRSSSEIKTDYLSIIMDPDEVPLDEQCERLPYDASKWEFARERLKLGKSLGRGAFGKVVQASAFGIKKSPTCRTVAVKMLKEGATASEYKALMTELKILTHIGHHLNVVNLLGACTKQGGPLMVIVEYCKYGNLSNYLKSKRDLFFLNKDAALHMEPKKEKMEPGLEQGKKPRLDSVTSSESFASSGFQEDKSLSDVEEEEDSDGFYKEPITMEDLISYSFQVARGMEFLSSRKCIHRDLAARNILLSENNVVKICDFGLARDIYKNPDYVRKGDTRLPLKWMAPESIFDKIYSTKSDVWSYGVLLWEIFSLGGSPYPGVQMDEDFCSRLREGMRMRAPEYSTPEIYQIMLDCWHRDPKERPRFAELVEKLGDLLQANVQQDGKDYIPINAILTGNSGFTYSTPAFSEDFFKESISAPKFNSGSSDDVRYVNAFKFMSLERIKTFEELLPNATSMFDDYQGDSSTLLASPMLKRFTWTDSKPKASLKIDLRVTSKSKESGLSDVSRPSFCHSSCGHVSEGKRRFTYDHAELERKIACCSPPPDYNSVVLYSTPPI

human VEGFR-2 alkaline phosphatase (human), sequence (P35968 20-764): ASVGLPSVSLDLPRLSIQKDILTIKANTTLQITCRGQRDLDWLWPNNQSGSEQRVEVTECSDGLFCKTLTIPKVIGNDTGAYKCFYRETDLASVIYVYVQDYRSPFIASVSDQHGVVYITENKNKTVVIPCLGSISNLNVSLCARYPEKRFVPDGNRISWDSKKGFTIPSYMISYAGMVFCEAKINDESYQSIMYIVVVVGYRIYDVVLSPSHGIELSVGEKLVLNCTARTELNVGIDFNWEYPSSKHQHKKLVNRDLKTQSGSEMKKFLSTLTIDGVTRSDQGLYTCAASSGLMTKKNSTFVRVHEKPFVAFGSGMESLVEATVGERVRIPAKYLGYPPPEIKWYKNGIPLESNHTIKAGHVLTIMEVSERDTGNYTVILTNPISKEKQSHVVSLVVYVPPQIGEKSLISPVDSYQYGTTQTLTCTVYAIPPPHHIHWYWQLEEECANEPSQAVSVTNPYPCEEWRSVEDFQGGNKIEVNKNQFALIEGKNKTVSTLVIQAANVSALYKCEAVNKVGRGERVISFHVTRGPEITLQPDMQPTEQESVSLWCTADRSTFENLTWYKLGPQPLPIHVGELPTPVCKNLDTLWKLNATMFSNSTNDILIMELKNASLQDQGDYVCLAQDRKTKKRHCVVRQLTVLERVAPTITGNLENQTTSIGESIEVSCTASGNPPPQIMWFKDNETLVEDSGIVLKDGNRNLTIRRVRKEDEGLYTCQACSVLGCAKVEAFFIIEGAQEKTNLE
mouse VEGFR-1 Fc (mouse), sequence (P35969 23-759 limits assumed): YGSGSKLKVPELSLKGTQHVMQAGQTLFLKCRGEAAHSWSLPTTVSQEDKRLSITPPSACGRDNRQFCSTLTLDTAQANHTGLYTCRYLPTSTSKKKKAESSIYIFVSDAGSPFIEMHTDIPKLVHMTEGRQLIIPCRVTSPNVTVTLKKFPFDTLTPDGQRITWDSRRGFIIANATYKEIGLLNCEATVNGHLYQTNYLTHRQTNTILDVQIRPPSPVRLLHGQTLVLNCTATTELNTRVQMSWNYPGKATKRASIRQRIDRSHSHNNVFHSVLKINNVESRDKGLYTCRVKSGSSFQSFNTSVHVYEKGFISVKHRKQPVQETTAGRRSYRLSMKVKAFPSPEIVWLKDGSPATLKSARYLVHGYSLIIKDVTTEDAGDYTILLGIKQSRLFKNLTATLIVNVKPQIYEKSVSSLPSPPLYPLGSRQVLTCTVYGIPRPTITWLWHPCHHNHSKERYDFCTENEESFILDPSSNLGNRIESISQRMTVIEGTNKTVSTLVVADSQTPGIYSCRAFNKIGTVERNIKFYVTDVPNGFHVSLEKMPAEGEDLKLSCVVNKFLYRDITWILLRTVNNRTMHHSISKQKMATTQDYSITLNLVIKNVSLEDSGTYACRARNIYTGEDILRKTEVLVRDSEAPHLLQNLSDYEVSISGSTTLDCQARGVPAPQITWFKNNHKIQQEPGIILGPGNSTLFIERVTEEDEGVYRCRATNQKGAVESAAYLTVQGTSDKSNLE
mouse VEGFR-1-AP (mouse), sequence (P35969 23-759): as the sequence (P35969 23-759 limits assumed) above

The EC50 (read off the curve) is the concentration needed to bring the measured effect to its halfway point. High values mean lower potency in that assay, low ones higher potency in that assay. As to 1C11 (antibody), the EC50 (read off the curve) in test [1] and in test [2] was 8 ng/mL in each case.

rat anti-mouse VEGFR-1 antibody MF1: the EC50 (read off the curve) with mouse VEGFR-1 Fc (mouse) and with mouse VEGFR-1-AP (mouse) was 0.8 ng/mL each time.

Take Control IgG (antibody): the MFI in test [3] was determined as 2.6.

For the origin of these results see patent US20100028347A1.
